Patent publication US20250346630A1, “Engineering Peptides Using Peptide Epitope Linker Evolution” (AGENCY FOR SCIENCE, TECHNOLOGY AND RESEARCH, priority 2022, published 2025)
Positions count from the first letter of the chain named. In names and notes the source's numbering stands. Each block holds one molecule with its values, some of them ahead of it.

Tests used:
[1] = target: T1, eIF4E eIF4G interaction site (eIF4E:4G interface) (Homo sapiens, UniProt P06730); assay: eIF4G^FAM tracer peptide competitive fluorescence anisotropy assay; settings: non-reducing conditions, 1:1 binding model, triplicate, Kds > 20,000 denoted non-binders, read-out: Competitive Anisotropy (kd, nM) eIF4AG^FAM
T1 construct: pET11d expression plasmid containing the full-length eIF4E clone; made in house; host or cells: E. coli Rosetta pLysS

eIF4E cap-binding site = target: T2, eIF4E cap-binding site (Homo sapiens, UniProt P06730); assay: m^7GTP^FAM competitive fluorescence anisotropy assay; settings: read-out: Competitive Anisotropy (kd, nM) m^7GTP^FAM, non-reducing conditions, 1:1 binding model, triplicate, Kds > 20,000 denoted non-binders
T2 construct: pET11d expression plasmid containing the full-length eIF4E clone; made in house; host or cells: E. coli Rosetta pLysS

[2] = target: T3, LgBiT-eIF4E:SmBiT-VH-DIF^CAP-01 interaction (eIF4E cap-binding site) (Homo sapiens, UniProt P06730); assay: NanoBIT^CAP complementation assay in HEK293 cells; format: cell-based; settings: HEK293 cells permeabilized with sub-CMC digitonin; read-out: IC50 for disruption of LgBiT-eIF4E with SmBiT-VH-DIF^CAP-01 interaction
T3 construct: expressed in transfected cells; host or cells: HEK293

PCNA = target: T4, PCNA (Homo sapiens, UniProt P12004); assay: Anti-FLAG immunoprecipitation pull down with PCNA; format: cell-based; settings: HEK293 cells
T4 construct: endogenous in cells; host or cells: HEK293
Method: Twenty-four hours prior to transfection or drugging, cells were seeded at a cell density of 1000.000 (HEK293) cells per well of a six-well plate (ThermoFisher Scientific). Transfections were performed using Lipofectamine 3000 (ThermoFisher Scientific) with either 2 μg or the indicated amount of plasmid vectors per well according to the manufacturer's instructions. After a 48-hour incubation period, the cell media was then removed and the cells washed with PBS saline. Cells were directly lysed in the wells with 300 μl of lysis buffer containing 20 mM Hepes pH 7.4, 100 mM NaCl, 5 mM MgCl2, 0.5% NP-40, 1 mM DTT, with protease (Roche) and phosphatase (Sigma-Aldrich) inhibitor cocktail sets added as outlined by the manufacturer's protocols. […] Beads were then washed four times with lysis buffer containing no protease or phosphatase inhibitors. This was then followed by the addition of Laemlee buffer (2×) and the beads boiled for 5 min at 95° C. Samples were centrifuged and the supernatant removed for western blot analysis.
Confluent HEK293FT cells were used to generate lentivirus for infection of target cells. Packaging cells were transfected using calcium phosphate transfection as described below. […]
Samples were resolved on midi or mini Tris-Glycine 4-20% gradient gels (Bio-Rad) according to the manufacturer's protocol. […] B-actin levels were measured to ensure equal loading.

eIF4E = target: T5, eIF4E (Homo sapiens, UniProt P06730); assay: Direct fluorescence anisotropy titration of eIF4E against labelled tracers; settings: 50 nM tracer, 1:1 binding model
T5 construct: pET11d expression plasmid containing the full-length eIF4E clone; made in house; host or cells: E. coli Rosetta pLysS

GST-tagged eIF4E = target: T6, GST-tagged eIF4E (UniProt P06730 1-217); assay: GST pull-down on glutathione beads with GST-eIF4E, Coomassie stained SDS-PAGE
T6 construct: also called GST-eIF4E; not shown: glutathione S-transferase tag of pGEX-6P1

full-length human eIF4E [3] = target: T7, full-length human eIF4E (human, UniProt P06730 2-217); assay: anti-FLAG immunoprecipitation from transfected HEK293 cells, western blot
T7 construct: mature; Used here for the purified full-length protein (anisotropy, ITC, crystals) and for endogenous eIF4E of HEK293 cells in pull-downs; also called cellular eIF4E

[4] = target: T8, proliferating cell nuclear antigen (PCNA) (human, UniProt P12004 1-261); assay: as above
T8 construct: Used here for the purified protein (anisotropy) and for endogenous PCNA of HEK293 and A375 cells in anti-FLAG pull-downs

LgBiT-eIF4E = target: T9, LgBiT-eIF4E (UniProt P06730 1-217); assay: NanoBit split-luciferase complementation in co-transfected HEK293 cells [CONT.) B]
T9 construct: Expressed in HEK293 cells; also called LgBiT fused eIF4E; not shown: LgBiT (18-kDa NanoLuc fragment, Promega NanoBit)

full-length human eIF4E [5] = target: T7, full-length human eIF4E; assay: competitive fluorescence anisotropy, displacement of m7GTP^FAM from eIF4E

Molecule: m^7GTP^BIOTIN
Kd [1]: > 20000 nM
Kd (eIF4E cap-binding site): 34.7 ± 4 nM

Molecule: Cn1c[n+]([C@@H]2O[C@H](COP(=O)(O)OP(=O)([O-])O)[C@@H](O)[C@H]2O)c2nc(N)[nH]c(=O)c21 [m^7GDP]
IC50 [2]: 34.5 µM
Kd [1]: > 20000 nM
Kd (eIF4E cap-binding site): 201 ± 25.2 nM

Molecule: m^7GTP^5-FAM [m^7GTP^FAM]
Kd (eIF4E): 0.149 µM

B1: VH-1C5^Scrambled (designed binder)
VH domain, His-tagged, purified: MSEVQLVESGGGLVQPGGSLRLSSAISGFSISSTSIDWVRQAPGKGLEWVARISPSSGSTSYADSVKGRFTISADTSKNTVYLQMNSLRAEDTAVYYTGRGSVLSVAFKPSVDSFSSFYNTNDYRGQGTLVTVSSGAA
notes: CDR3 loop of VH-1C5 scrambled; also called scrambled VH domain (negative control)
binding result (GST-tagged eIF4E): no binding

B2: VH-S4 (expressed in HEK293 cells) (designed binder)
VH: MSEVQLVESGGGLVQPGGSLRLSSAISGFSISSTSIDWVRQAPGKGLEWVARISPSSGSTSYADSVKGRFTISADTSKNTVYLQMNSLRAEDTAVYYTGRVAKALNSRSPSFVVNTYSSIGFDYRGQGTLVTVSSGAA
binding result (full-length human eIF4E [3]): binds

Next, values leading:

anti-FLAG pull down in complex with PCNA (PCNA): do not
Molecule: YVRPRLPHMSQFES [scrambled]

binding result [4]: no binding
anti-FLAG pull down in complex with PCNA (PCNA): do not
B3: negative control M4 (FLAG-tagged, expressed in HEK293 cells) (designed binder)
VH: B2 VH with R108S, I120F
notes: not shown: C-terminal 3x FLAG tag of the pCDNA3.1 vector

binding result (full-length human eIF4E [3]): no binding
B4: FLAG-tagged VH-DIF^CAP-01 MA (M104A) (expressed in HEK293 cells) (designed binder)
VH: MSEVQLVESGGGLVQPGGSLRLSSAISGFSISSTSIDWVRQAPGKGLEWVARISPSSGSTSYADSVKGRFTISADTSKNTVYLQMNSLRAEDTAVYYTGRPLPEAGFFTNIPAMVDYRGQGTLVTVSSGAA
notes: also called VH-DIF^CAP-01 mutant (M104A); VH-DIF^CAP-Cntrl; not shown: C-terminal 3x FLAG tag of the pCDNA3.1 vector

binding result (LgBiT-eIF4E): no binding
B5: SmBiT-VH-DIF^CAP-01 E103A (designed binder)
VH: B4 VH with E104A, A105M
notes: also called VH-DIF^CAP-01 EA fused to smBIT; not shown: SmBiT (11-amino-acid NanoLuc fragment)

binding result (LgBiT-eIF4E): no binding
B6: SmBiT-VH-DIF^CAP-01 M104A (designed binder)
VH: B4 VH
notes: also called VH-DIF^CAP-01 MA fused to smBIT; not shown: SmBiT (11-amino-acid NanoLuc fragment)

binding result (full-length human eIF4E [5]): no binding
B7: VH-DiF^CAP-01^Cntrl (purified, His-tagged) (designed binder)
VH: B4 VH
notes: also called VH-DIF^CAP-01 MA (M104A); not shown: C-terminal six-histidine tag from pET-22b(+)
